Test [1] addresses GPC3 core (sGPC3-His) protein (human) (UniProt P51654). The test is described as follows: competition ELISA on plate-bound sGPC3; unlabeled GT607 (100-fold) against competitor biotin-labeled GT165; signal of the labeled antibody. For orientation: In an ELISA, binding on a coated surface is turned into a signal by an enzyme label.
Test [2] has the same target. Put plainly: competition ELISA on plate-bound sGPC3; unlabeled GT114 (100-fold) against competitor biotin-labeled GT165.
Test [3] shares this target. The test is described as follows: competition ELISA on plate-bound sGPC3; unlabeled GT114 (100-fold) against competitor biotin-labeled GT607.
Test [4] shares this target. The test is described as follows: competition ELISA on plate-bound sGPC3; unlabeled GT165 (100-fold) against competitor biotin-labeled GT114; signal of the labeled antibody.
The target is the same in test [5]. The test is described as follows: competition ELISA on plate-bound sGPC3; unlabeled GT165 (100-fold) against competitor biotin-labeled GT165; signal of the labeled antibody.

A value given as a limit tells only on which side of the number the result lay.

GPC3 core (sGPC3-His) protein (human), sequence (P51654 25-563 S495A/S509A): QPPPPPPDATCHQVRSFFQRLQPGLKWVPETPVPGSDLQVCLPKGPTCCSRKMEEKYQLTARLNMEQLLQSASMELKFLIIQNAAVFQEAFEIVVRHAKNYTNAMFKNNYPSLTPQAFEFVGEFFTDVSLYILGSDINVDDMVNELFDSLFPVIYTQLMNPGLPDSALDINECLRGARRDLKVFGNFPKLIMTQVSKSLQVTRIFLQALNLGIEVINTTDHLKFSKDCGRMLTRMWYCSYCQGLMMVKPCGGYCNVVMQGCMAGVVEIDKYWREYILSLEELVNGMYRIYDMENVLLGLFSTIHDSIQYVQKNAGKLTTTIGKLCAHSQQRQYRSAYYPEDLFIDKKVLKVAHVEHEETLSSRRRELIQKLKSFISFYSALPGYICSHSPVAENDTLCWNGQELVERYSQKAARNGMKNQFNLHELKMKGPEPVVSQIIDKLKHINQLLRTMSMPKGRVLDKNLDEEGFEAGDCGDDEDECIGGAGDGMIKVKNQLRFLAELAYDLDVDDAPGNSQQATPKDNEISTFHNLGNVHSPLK

B1: GT607 antibody (antibody, IgG1, V domains shown)
VH: EVQLVESGGDVVRPGGSLKLSCAASGFTFSSYGMSWVRQLPDKRLEWVASVGNGGSYRYYPENLKGRFTISRDNTKNTLYLQISGLKSEDTAIYYCARRGAFPYFDVWGAGTTVTVSS
VL: QIVLTQSPAIMSASPGEKVTLACSASSSVTYMHWYQQKSGTSPKRWIYETSKLASGVPPRFSGSGSGTSYSLTISTMEAEDAATYYCQQWSSNPLTFGAGTKLELKR
Molecule B1 displayed an O.D. 450 in test [1] of 0.129 O.D. 450.

B2: GT114 antibody (antibody, IgG1, V domains shown)
VH: DVQLQESGPGLVKPSQSLSLTCTVTGYSITSDSAWNWIRQFPGNKLEWMAYIMYSGITSYNPSLKSRISITRDTAKNQFFLQLNSVTTEDSATYYCSRGYWYFDVWGAGTTVTVSS
VL: QIVLTQSPAIMSASLGEEITLTCSASSSVSYMHWYQQKSGTSPKLLIYSTSILASGVPSRFSGSGSGTFYSLTISSVEAEDAADYYCLQWITYRTFGGGTKLEIKR
Regarding B2, the Inhibitory effect (%) in test [2] was less than 0%; in test [3], 86%.

B3: GT165 antibody (antibody, IgG1, V domains shown)
VH: QVQLQQSGAELVGPGASVKISCKAFGYTFTNHHINWVKQRPGQGLDWIGYINPYNDYTNYNQKFKGKATLTVDKSSSTAYMELSSLTSEDSAVYYCARSDPAWFAYWGQGTLVTVSA
VL: DIQMTQSPSSLSASLGGKVTITCKASQDINKNIAWYQHKPGKGPRLLIWYTYTLQPGIPSRFSGSGSGRDYSFSISNLEPEDIATYYCLQYDNLPFTFGTGTKLEIKR
Consider B3, for which the O.D. 450 came to 2.28 O.D. 450 in test [4] and 0.111 O.D. 450 in test [5].

The values above are taken from patent EP3088890B1 (Chugai Seiyaku Kabushiki Kaisha, dated 2020).
